Measured values reported in the DeepSol protein solubility set.

Test: soluble on expression in E. coli; label from the status in PepcDB or PDB records

Row | Sequence | soluble on expression in E. coli
1 | MIARGSRAPRCPQCRVIDSYCLCAWRPTVAAESGMCLLMYDTEPMKPTNTGWLIADVIKDTYAFGWSRVEIDAHLRALLDDPQWQPYIVFPGEFVAQERVVAEVAREDGKRPLFILLDATWNEARKMFRKSPYLEKFPVLSLAPEQISRYRLRRSKRDDHFCTAEVAALCLELAGDVSASGVLDAYLDVFSAHYLGAKFQRPIDPDDVAHTYLKAFILEHHHHHH | not soluble
2 | MIDFGNFYSLIAKNHLSHWLETLPAQIANWQREQQHGLFKQWSNAVEFLPEIKPYRLDLLHSVTAESEEPLSAGQIKRIETLMRNLMPWRKGPFSLYGVNIDTEWRSDWKWDRVMPHLSDLTGRTILDVGCGSGYHMWRMIGAGAHLAVGIDPTQLFLCQFEAVRKLLGNDQRAHLLPLGIEQLPALKAFDTVFSMGVLYHRRSPLEHLWQLKDQLVNEGELVLETLVIDGDENTVLVPGDRYAQMRNVYFIPSALALKNWLKKCGFVDIRIADVSVTTTEEQRRTEWMVTESLADFLDPHDPGKTVEGYPAPKRAVLIARKP | not soluble
3 | MIDLKELKKYCNHSYLTIRNDKIIVGNKGLARLSKEKMRKIEMDFEIPVVYSRVFEEISERMGRYVSKNNIISPKDKILVGLSGGKDSLALLHLLEPYRRKYGVQIYAVTVDLNINGIRPWTESNKNVKMISEHCKNLNIPHEIIAHDGNVVEMSKILSENTKGIEYSPCFSCSMVRRHVLTNYAKNNFESDSNVKIAIGHTLEDNSDTIMANIFKGNVIKALEPIKNFNKTDVDFKDFKLNLKSCCMIRPMLNVSEEKIVKALVECDIEYYKDKDECPYSRHNGDGIRKKSHEVLKSLEEDVPNIREMIISSILNSIEQYKQK | not soluble
4 | MIDTHIHSDTRGLEDLELMAMCLDGVITLAHDPFEMKNIKVWEAHVEKLLINELERAKKVGLNLFICVGMHPRAIPPEIDEALDKIKSYINYNSRVVGIGEIGLEKATKEEKEVFIKQLLLAEELNMPAVVHTPRRNKEEVTKIILDEISTLNLKNRDIVIEHCNKETTKWVLDEEFYVGLTIQPGKLTPLEAVEIVKEYKDFADKILLNSDCSSNASDVLAVPRTVLKMKINGIEKDVIYKVAHKNAVNLFGLDI | not soluble
5 | MIDWDDLECRVAREESRHQAGIGTCSLALQIGFFFDGLKRNINVDEESQRLTNVGRLFRAHSFEIKASLTSAYSSAKIYVPGLGTLLDDTPSERLDSILDARQQALPEDYADALVEQGKETAVDTVKGVFKEDWSQVLSNKLGDLVTMKSGFDATVSAAKKAATRALLEATEPIRDNPIVAELLMTGVDARVDLAKNKFKESIVLSKKENQLPIKLVQISVFGADLGAALARRFIDELLESVCTKVGNEYRYEDSKVEVIFAGLFDCTRRSSMDMGDTVATISDGAGLVARHPVVGLITTAFGAKVITFDKPLHPAVKKALHLIAAHERREYRPLLPLGPLRSGWREVLCPGISEDVTGGLLPDEQRPSAELCRVPLRQMYETARRAQVPFPNFSILDAKNPRVAQYFIMQDSRLGYSAKKYSEYYSKWVGKMNPTPEAFELHMIHYCFWLGEKLHDYKILRQNVSGSERDKLNAQWGWLIQVGRDAENVLRSRGLSRQMYRGADLVKFFNGIKRVPREADIFFNYFMHDFTSEELKFATLNEQANTMLRNNNFFVPRGIEILAVDDEAAALEHHHHHH | soluble
6 | MIEENLKQKIHDKFVAAKKNGHLKVTHAESKKLKDPQTTTQYWVTFAPSLALKPDANKNSDSKAEDPFANPDEELVVTEDLNGDGEYKLLLNKFPVVPEHSLLVTSEFKDQRSALTPSDLMTAYNVLCSLQGDKDDDVTCERYLVFYNCGPHSGSSQDHKHLQIMQMPEKFIPFQDVLCNGKDHFLPTFNAEPLQDDKVSFAHFVLPLPESSDQVDEDLLAMCYVSLMQRALTFFQDWTNESPELTKSYNVLLTKKWICVVPRSHAKSGPPLMLNINSTGYCGMILVKDREKLENLTEDPHLVDKSLLQCGFPNTAGQKPTEYHY | not soluble
7 | MIEFKNVSKHFGPTQVLHNIDLNIRQGEVVVIIGPSGSGKSTLLRCINKLEEITSGDLIVDGLKVNDPKVDERLIRQEAGMVFQQFYLFPHLTALENVMFGPLRVRGVKKEEAEKQAKALLAKVGLAERAHHYPSELSGGQQQRVAIARALAVKPKMMLFDEPTSALDPELRHEVLKVMQDLAEEGMTMVIVTHEIGFAEKVASRLIFIDKGRIAEDGSPQALIENPPSPRLQEFLQHVS | not soluble
8 | MIEGKTLVVNPFIGGSAKNITDEQYISILKKIKEKMPDLNIIITSYTTDEERTEKLCKDIGKDKIFAFSNGASILNTASIIDRADVYFGASTGPTHIAGALGKKIVAIYPHKKTQSPTRWGVLGNSNVRYIIPDENNPNEDYKNPYLEHHHHHH | not soluble
9 | MIELTITNATITAGDTPLLTNASLHVGSGECVALMGESGSGKTTLAQAILGYLAPGCRWCSGSIDVDGLNPLQLAPRSLRELRKRCAYVDQDPGAALPPGHSVRSIVRSRASLSDAQMLSIFGDFGLGDIDR | not soluble
10 | MIERSLNATEKAIESIREGELVRRHTDLELRDMQISMNEDFDRIRGMMHELDEQIHKDRSGNSKWMNQKMEKAKATADQALASTLMVKDVQLLEKKVNILKESVVQVNKSFYKYEKDVDMNDLMDQVIDMVHRTEKKEQDALEAHATDEQAIGKAFRGAIEGLYGLKSSNSKVMEEAKLLAGEMRVFRDAASNKNFHTMISRIASNTATSGVPLKYSSGPESSFSTSAYTSFSKSANNSSMSGSN | not soluble
11 | MIESKTYAVLGLGNGGHAFAAYLALKGQSVLAWDIDAQRIKEIQDRGAIIAEGPGLAGTAHPDLLTSDIGLAVKDADVILIVVPAIHHASIAANIASYISEGQLIILNPGATGGALEFRKILRENGAPEVTIGETSSMLFTCRSERPGQVTVNAIKGAMDFACLPAAKAGWALEQIGSVLPQYVAVENVLHTSLTNVNAVMHPLPTLLNAARCESGTPFQYYLEGITPSVGSLAEKVDAERIAIAKAFDLNVPSVCEWYKESYGQSPATIYEAVQGNPAYRGIAGPINLNTRYFFEDVSTGLVPLSELGRAVNVPTPLIDAVLDLISSLIDTDFRKEGRTLEKLGLSGLTAAGIRSAVE | soluble
12 | MIFMHPKTLEILKMFEEINKIPRRSKNEEKLALWLMEWAKNHNFEAKTDALNNVLIKVPPTPGYENSPAIVLQGHMDMVCEKCRDSGHDFSKDPIICIYEGDWLRGDGTSIGADNGIALAIGLVLAESGIKGEIEHPPLELLFTVDEETGLTGASGLEEDFFEGRILLNLDSEDEGIFILGCAGGQNSRIFLPLQWESFDYGKGSGFGLFRISAEGLEGGHSGVEIHRQRANGIQLLARMLSALKEKVGKENLRLVFFSGGSVHNAIPNYAEAFIVLSRNNEKQAEDFVSGLQKSFRGEYAVSDPEITLQLKEVENGIIFEASGGKITRKEVPSDRVFSVETEEKLYGVLLGMPHGVHRVSDTIPGLVETSNNLATVRTGEKEVRIVSSQRSSVMSRLAEVTEKVETVAKLAGARVEHECGYPAWEPDLQSGLLMKCRHAYSGTFGKEPEIKVVHAGLECGVIGSKCECIEMISFGPTIKDPHSPAERVYIPSIEKVWVFLENLMKSYRLEHHHHHH | soluble
13 | MIFNVRGENLEVTPALREYVEKKVGKLERYFDTTPVADVNVRMQVLNNLHIIEVTIPMSRLLLRAEEKHSDMYAAIDLVIEKLERQIRKHKTKVNRKFRQEGSLKYMFKNDLEPMDGMREEILLEEEDDLQVVRKKRFNLKPMDTEEAILQMDMLGHNFFVFSNAISGDTNVVYRRKDGKYGLIEPELEHHHHHH | soluble
14 | MIFYFSGTGNSKWIAEQIAKAQNEVLVFMPNAIRDGIEEFVLADDEKVGFVFPVYSWGPPLSVLRFLDWITLSNYHSQYVFFVCSCGDDTGLTEELFRRALSRKGMECNAGFSVAMPNNYVLLPGFDVDKKELEKKKLDEAVGRVEEINDSITGKKIGFHCNEGSFPWFKTKVLNPLFNRFMTSAKPFYATDDCIGCKRCERICPVGNVVMIGWRPVWGMDCTSCLACYHVCPKHAVQYGRRTKRKGQYLNPNVSISHEAAAQLEHHHHHH | not soluble
15 | MIFYFSGTGNSKWIANQLSKEQQEDLFFIPDAWKNDTWEFSLREDEKIGFVFPVYSWAPPVIVQEFIRKLVLKGYQQQYLFFVCSCGDDTGLTRQVMEKALAARGWRCNAGFSVIMPNNYVLFLGFDVDSKELEKKKLAEAVPALEKVSRLITGRETVFACKEGSLPFIKTRIINPLFVRYQMSPKPFHATSECIGCKRCEKSCPVGNITMKERRPVWGKNCTACLACYHVCPQHAVQYGKKTKGKGHYFNPDSAYLEHHHHHH | soluble
16 | MIGLITTLYFVAKTAFIKLKVAVYKDKAKGSGNKNTIVIYSEGKRYWNVFLPICNEFEEHQKELVFYTSSEDDPVFEQHYTYVKPEYIGKGNKAFARLNMLEADICLMTTPGLDVYQLKRSKHVRHYSHILHALDDATSYRLFGLDYFDSVLLSGEYQVKGIRELESLRNLPPKNLRVVGCPYLDVLSEKIKNLPEKSSDFTVLIAPSWGASGILSKYGEQLITPLVETGWNIIIRPHPQSKTSEPDMLKRLEGKYKDVANFVWDYNSENIDSLSKADIMISDFSSVIFDYCFLFDKPFLYCNNEFDHRPYDSGDLKETPWKFSVLKEIGVELNSNSFDHIKEIISEACKSETLKENRLKAKDTAWQNRGCAGKAVYDFLTEIKTI | not soluble
17 | MIGNLKLKRFEEVNLVLSGGAAKGIAHIGVLKALEELGIKVKRLSGVSAGAIVSVFYASGYTPDEMLKLLKEVNWLKLFKFKTPKMGLMGWEKAAEFLEKELGVKRLEDLNIPTYLCSADLYTGKALYFGRGDLIPVLLGSCSIPGIFEPVEYENFLLVDGGIVNNLPVEPLEKFKEPIIGVDVLPITQERKIKNILHILIRSFFLAVRSNSEKRKEFCNVVIEPPLEEFSPLDVNKADEIFLRGYESTLRIMRNFVKHLEHHHHHH | not soluble
18 | MIGRKEKERERPYYRDPDDPEYIKDLQRPAVIKEDLSEMERRKRVQQILESKSFCHELEEVIRQECDTARTDPDHLQVLQKLSDLTVPQGNMSFGNLHTYGGNTIAIADLRGNEKYSKAERIQRNKLACLFRLADLFQWSQGIHNEISYRTNDEDNTFLMNPFGLLYHEITAATIVKIDENGKILDCGTLKAGVNQPAFLLHSAIYKAHPMVRCILHMHTAIVAAVASMKCGLLPLCKEAMVLGPVGYHDYQDIGDDDIQFDEIIANLGDKNVLFLRNQGFLVVGDTIEHATFLANNTVIACETQVRAARAGLDNLIIPEEKAIQRAFRNSRNTNSLKRNGTVDWRVGELEWESWMRVLDHANFQTGHVYRQPQLRPKSAMSTSMVNNNDVAVPPTTSAYGQIDETNLESVSAHRLALLRKEQERVRWMNSPNAYQKVEFLEYGADNPKKITKWVHDVNVPSASGTPVKISSVHQFSPASSNPKEFKEKQKAIKENNRLGTLSAGPQSQILDSVTYEDIALLIKPDNDGTVGQSSTADRAILIGTASKGIIDRQFQHHAQVYHQIYAPNPFSVETDADIKKYVDMVKAKNSQSAPVSARSGYSQYDEVEADTVSLMQGVREHKLSQAALSASDDGLNAGISPNNVRTSEESVNTSYMSQSVVFDYPDILRPIYRQETYV | not soluble
19 | MIGRRHPYYPYLEAALEAASLARGIHLYYLEKGFTEGTKSGPTDLVTQADREAEEAVKGLLLSRFPEAGFLGEEGGSEGGKALRFIVDPLDGTVNYAHGFPFFAVSIALEAESAIQMGVVMDTARGEVFYALRGEGAYLNGRPIRVTGRESLVGSLLATGFPYDVAKDPENLTYFERALRKGLLVRRPGAAALDLAYVAAGRLEGFWEVKLNPWDVAAGWLLVEEAGGRVTDLEGNPYRLGSRYILATNGRVHEALRRTLLGLD | soluble
